B1: DNA polymerase eta (Homo sapiens), Q9Y253 (parent)
chain: MATGQDRVVALVDMDCFFVQVEQRQNPHLRNKPCAVVQYKSWKGGGIIAVSYEARAFGVTRSMWADDAKKLCPDLLLAQVRESRGKANLTKYREASVEVMEIMSRFAVIERASIDEAYVDLTSAVQERLQKLQGQPISADLLPSTYIEGLPQGPTTAEETVQKEGMRKQGLFQWLDSLQIDNLTSPDLQLTVGAVIVEEMRAAIERETGFQCSAGISHNKVLAKLACGLNKPNRQTLVSHGSVPQLFSQMPIRKIRSLGGKLGASVIEILGIEYMGELTQFTESQLQSHFGEKNGSWLYAMCRGIEHDPVKPRQLPKTIGCSKNFPGKTALATREQVQWWLLQLAQELEERLTKDRNDNDRVATQLVVSIRVQGDKRLSSLRRCCALTRYDAHKMSHDAFTVIKNCNTSGIQTEWSPPLTMLFLCATKFSASAPSSSTDITSFLSSDPSSLPKVPVTSSEAKTQGSGPAVTATKKATTSLESFFQKAAERQKVKEASLSSLTAPTQAPMSNSPSKPSLPFQTSQSTGTEPFFKQKSLLLKQKQLNNSSVSSPQQNPWSNCKALPNSLPTEYPGCVPVCEGVSKLEESSKATPAEMDLAHNSQSMHASSASKSVLEVTQKATPNPSLLAAEDQVPCEKCGSLVPVWDMPEHMDYHFALELQKSFLQPHSSNPQVVSAVSHQGKRNPKSPLACTNKRPRPEGMQTLESFFKPLTH
B2: DNA polymerase iota (Homo sapiens), Q9UNA4 (parent)
chain: MEKLGVEPEEEGGGDDDEEDAEAWAMELADVGAAASSQGVHDQVLPTPNASSRVIVHVDLDCFYAQVEMISNPELKDKPLGVQQKYLVVTCNYEARKLGVKKLMNVRDAKEKCPQLVLVNGEDLTRYREMSYKVTELLEEFSPVVERLGFDENFVDLTEMVEKRLQQLQSDELSAVTVSGHVYNNQSINLLDVLHIRLLVGSQIAAEMREAMYNQLGLTGCAGVASNKLLAKLVSGVFKPNQQTVLLPESCQHLIHSLNHIKEIPGIGYKTAKCLEALGINSVRDLQTFSPKILEKELGISVAQRIQKLSFGEDNSPVILSGPPQSFSEEDSFKKCSSEVEAKNKIEELLASLLNRVCQDGRKPHTVRLIIRRYSSEKHYGRESRQCPIPSHVIQKLGTGNYDVMTPMVDILMKLFRNMVNVKMPFHLTLLSVCFCNLKALNTAKKGLIDYYLMPSLSTTSRSGKHSFKMKDTHMEDFPKDKETNRDFLPSGRIESTRTRESPLDTTNFSKEKDINEFPLCSLPEGVDQEVFKQLPVDIQEEILSGKSREKFQGKGSVSCPLHASRGVLSFFSKKQMQDIPINPRDHLSSSKQVSSVSPCEPGTSGFNSSSSSYMSSQKDYSYYLDNRLKDERISQGPKEPQGFHFTNSNPAVSAFHSFPNLQSEQLFSRNHTTDSHKQTVATDSHEGLTENREPDSVDEKITFPSDIDPQVFYELPEAVQKELLAEWKRAGSDFHIGHK

Variants of: B1
Conditions: with ubc_human UBC

effect of a mutation on the interaction | Variant
disrupting interaction | H654A

Variants of: B2
Conditions: with ubc_human UBC

effect of a mutation on the interaction | Variant
decreasing interaction strength | P717R

From IntAct's records for PubMed 16763556
